The nanobody polyreactivity screen of Harvey et al. (2022)

Assay: yeast display, Sf9 membrane polyspecificity reagent, FACS + sequencing; frameworks hold sequencing errors
Outline: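 Polyreactivity labels are assigned by the sorting gate from which each nanobody was recovered. The gates were low and high (top ~1%), set on anti-HA fluorescence for expression and streptavidin fluorescence for reagent binding. Before sorting, galactose-induced (36–48 hours) yeast display cells were stained for 1 hour at 4 °C with 10% biotinylated, detergent-solubilized Sf9 membrane reagent.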

Sequence	polyreactivity (PSR sort gate)
QVQLVESGGGLVQAGGSLRLSCAASGSIFGYYAMGWYRQAPGTERELVAAINSDGSTDYADSVKGRFTISRDNAKNTVYLQMNSLKPEDTAVYYCATRYYSIFTFFISYTYDYWGQGTQVTVSS	low polyreactivity
QVQLVESGGGLVQAGGSLRLSCAASGSIFGYYAMGWYRQEPGKERELVAAITRSGGSTYYADSVKGRFTISRDNAKNPVYLQMNSLKPEDTAVYYCNAVRYAVRLPAFPGYDYWGQGTQVTVSS	high polyreactivity
QVQLVESGGGLVQAGGSLRLSCAASGSIFGYYSMGWYRQAPGKERELVAAISRSGTRTYYADSVKGRFTISRDNAKNTVYVQMNSLKPEDTAVYYCNAVQQYYGTWGYGYWGQGTQVSVSS	high polyreactivity
QVQLVESGGGLVQAGGSLRLSCAASGSIFGYYTMGWYRQAAGKERELVAAITLDTGNTYYADSVKGRLTITRDNAKNTVYLQMNSLKPEDTAVYYCNTDYYSGYIARWSFDYWGQGTQVTVSS	low polyreactivity
QVQLVESGGGLVQAGGSLRLSCAASGSIFGYYVMGWYRQAPGKERELVAAITKSGGSTYYADSVKGRFTISRDNAKNTVYLQKNSLKPEDTAVYYCAKRFYSTGYGRFDYWGQGTQVTVSS	high polyreactivity
QVQLVESGGGLVQAGGSLRLSCAASGSIFHANAMGWYRQAPGKERELVAVISQGGGSTYYADSVKGRFTISRDNAKNTVYLQMNSLKPEDTAFYYCAAYYYYSAYGDDYWGQGTQVTVSS	high polyreactivity
QVQLVESGGGLVQAGGSLRLSCAASGSIFHAYAMGWYRQAPGKERELDAAISYTGGTYYADSVKGRFTISRDNAKNTVYLQMNSLKPEDTAVYYCAIVTRYLHIGVPYVEFDYWGQGTQVTVSS	low polyreactivity
QVQLVESGGGLVQAGGSLRLSCAASGSIFHFYAMGWYRQAPGKERELVAAITSGTSTYYADSVKGRFTISRDNAKNTVYLQMNSLKPEDTAVYYCAAEASHYYYNAYPSYGGSDYWGQGTQVTVSS	low polyreactivity
QVQLVESGGGLVQAGGSLRLSCAASGSIFHFYVMGWYRQAPGKERELVAGISSSGGRTYYADSVKGRFTISRDNAKNTFYLQMNSLKPEDTAVYYCANDMYHSVGRYDYWGQGTQVTVSS	low polyreactivity
QVQLVESGGGLVQAGGSLRLSCAASGSIFHGNAMGWYRQAPGKERELVAAITARGGRTYYADSVKGRFTISRDNAKNTVYLQMNSLKPEDTAVYYCNAVHRYERDYWGQGTQVTVSS	high polyreactivity
QVQLVESGGGLVQAGGSLRLSCAASGSIFHGYAMGWYRQAPGKERELVAAITYSGGRTYYADSVKGRFTISRDNAKNTVYLQMNSLKPEDTAVYYCAALTRRVKKYDYWGQGTQVTVSS	high polyreactivity
QVQLVESGGGLVQAGGSLRLSCAASGSIFHGYTMGWYIQSPGKERELVAAISRRGDSTYYADSVKGRFTISRDNAKNTVYLQMNSLKPEDTAVYYCATVFYRTRYVPYGYWGQGTQVTVSS	low polyreactivity
QVQLVESGGGLVQAGGSLRLSCAASGSIFHNYDMGWYRQAPGKERELVADISRGGDTNYADSVKGRFTISRDNAKNTVYLQMNSLKPEDTAVYYCNATYWILDSPWWRETFDYWGQGTQVTVSS	low polyreactivity
QVQLVESGGGLVQAGGSLRLSCAASGSIFHPYTMGWYRQAPGKERELVAAISWSGGNTNYADSVNGRFTISRDNAKNTVYLQMNSLKPDDTAVYYCNKATNLSGGYDSWGQGTQVTVSS	low polyreactivity
QVQLVESGGGLVQAGGSLRLSCAASGSIFHPYTMGWYRQAPGKERELVAGISQSSDSTYYADSVKGRFTISRDNAKNTVYLQMNSLKPEDTAVYYCNRDNDWPLSVVEVDYWGQGTQVTVSS	low polyreactivity
QVQLVESGGGLVQAGGSLRLSCAASGSIFHSYAMGWYRQAPGKERELVAGITSSCDRTNYADSVKGRFTISRDNAKITVYLQMNSLKPEDNAVYYCAAVARYPKGRTRRGYGYWGQGTQVTVSS	high polyreactivity
QVQLVESGGGLVQAGGSLRLSCAASGSIFHTYVMGWYRQAPGKERELVASITRSGGSTYYADSVKGRFTISRDNAKKTVYLQMNSLKPEDTAVYYCAATYRTANHRYYYWGQGTQVTVSS	high polyreactivity
QVQLVESGGGLVQAGGSLRLSCAASGSIFHVNAMGWYRQAPGKERELVAGISDGGSTYYADSVKGRFTISRDNAKNTVYLQMNSLKPEDTAVSYCAAESEQWYSYVLSYVWEYDYWGQGTHVTVSS	low polyreactivity
QVQLVESGGGLVQAGGSLRLSCAASGSIFHWNAKGWYRQAPGKERELVAGITTSGGTTYYADSVKGRFTISRDNAKNTVYLQMNSLKPEDTAVYYCAARIIRWRPRWPSYGKYDYWGQGTQVTVSS	low polyreactivity
QVQLVESGGGLVQAGGSLRLSCAASGSIFHWYAMGWYRQAPGKERELVAAITWSGDTTYYADSVKGRFTISRDNAKNTVYLQMNSLKPEDTAVYYCAVERDDQDYDYWGQGTQVTVSS	low polyreactivity
QVQLVESGGGLVQAGGSLRLSCAASGSIFHYNAMGWYRQAPGKERELVAAISTSGGSTYYADSVKGRFTISRDNAKNTVYLQMNSLKPEDTAVYYCNAYHRYRRLEMYYWGQGTQVTVSS	high polyreactivity
QVQLVESGGGLVQAGGSLRLSCAASGSIFHYNAMGWYRQAPGKERELVARISVNGGRTYYADSVKGRFTISRDNAKNTVYLQMNSLKPEDTEVYYCAVEGVWRSFFYGYDSWGQGTQVTVSS	low polyreactivity

Sequence	polyreactivity (PSR sort gate)
QVQLVESGGGLVQAGGSLRLSCAASGSIFHYYAMGWYRPAPGKERELVAAISWSGGRTYYADSVKGRFTISRDNAKNTVYLQMNSLKPEDTAVYYCAAARGESYEFYSWGQGTQVTVSS	high polyreactivity
QVQLVESGGGLVQAGGSLRLSCAASGSIFIANAMGWYRQAPGKERELVATISWSGGRTYYADSVKGRFTISRDNAKNTVYLQMNSLKPEDTAVYYCAAVYGAYDSGYKYNYWGQGTQVTVSS	high polyreactivity
QVQLVESGGGLVQAGGSLRLSCAASGSIFIFNAMGWYRQAPGKEREFVARIRRDSSTYYADSVKGRFTISRDNAKNTVYLQMNSLKPEDTAVYYCADKRVYRRVELNSWGQGTQVTVSS	low polyreactivity
QVQLVESGGGLVQAGGSLRLSCAASGSIFIFYAMGWYRQAPGNERELVADITSDGASTYYADSVKGRFTISRDNAKNTVYLQMNSLKPEDTAVYYCAADYIDSSAYDYWGQGTQVTVSS	low polyreactivity
QVQLVESGGGLVQAGGSLRLSCAASGSIFIGNAMGWYRQAPGKERELVAVISKGGGRTYYADSVKGRFTISRDNAKNTVYLQMNSLKPEDSAVYYCNTRNPHRGDYWGQGTQVTVSS	high polyreactivity
QVQLVESGGGLVQAGGSLRLSCAASGSIFIGYAIGWYRQAPGKERELVAAITNGGRTYFADSVKGRFTISRDNAKNTVYLQMISLKPEDTAVYYCAAVPSQTYRRTPYLWHDYWGQGTQVTVSS	high polyreactivity
QVQLVESGGGLVQAGGSLRLSCAASGSIFIGYAMGWYRQAPGKERELVAAITSGSITNYADSVKGRFTISRDNAKNTVYLQMNSLKPEDTAVYYCAADIYTYLGAYYIGYYWGQGTQVTVSS	low polyreactivity
QVQLVESGGGLVQAGGSLRLSCAASGSIFIGYARGWYRQAPGKERELVAGISWSGGSTYYADSVKGRFSISRDNAKNTVYLQMNSLKPEDTAVYYCNADITLYYFWAWTYGYYYWGQGTQVTVSS	high polyreactivity
QVQLVESGGGLVQAGGSLRLSCAASGSIFILNAMGWYRQAPGKERELVAAISSSGGSTYYADSVMGRFTISRDNAKYTDYLQMNSLKPEDSAVYYCAAERNYYFLFPYDSWGQGTQVTVSS	high polyreactivity
QVQLVESGGGLVQAGGSLRLSCAASGSIFINNAMGWYRQAPGKERELVAAISSSGTTYYADSVKGRFTISRDNAKNSVYLQMNSLKPEDTAVYYCNARYSLHSYYCFIYDSWGQGTKVTVSS	low polyreactivity
QVQLVESGGGLVQAGGSLRLSCAASGSIFINYAMGWYRQAPGKERELVAAISKNGGNTYYADSVKGRFTISRDNAKNTVYLQMNSLKPEDTAVYYCNYDYWGQGTQVTVSS	low polyreactivity
QVQLVESGGGLVQAGGSLRLSCAASGSIFIPNAMGWYRQAPGKERELVAAISLSDTTTYYADSVKGRFTISRDNAKNTVYLKMNSLKPEDTAVYYCAADYWFYPTSPDMDYLGQGTQVTVSS	low polyreactivity
QVQLVESGGGLVQAGGSLRLSCAASGSIFIQYAMGWYRQAPGKERELVAAITGSGGSTYYADSVKGRFTISRDNAKNTVYLQMNSLKPEDTAVYYCATEFKRGYVGFDYWGQGTQVTVSS	low polyreactivity
QVQLVESGGGLVQAGGSLRLSCAASGSIFIRNAMGWYRQAPGKERELVAAITSGGNTYYADSVKGRFTISRDNAKNTVYFQMNSLKPEDTAVWGQGTQVTLSS	low polyreactivity
QVQLVESGGGLVQAGGSLRLSCAASGSIFISYAMGWYRQAPGKARELVAAISRSGGSTYYADSVKGRFTISRDNAKNTVYLQMNSLKPEDTAVYYCAARSYPGKAGMGYWGQGTQVTVSS	high polyreactivity
QVQLVESGGGLVQAGGSLRLSCAASGSIFISYAMGWYRQAPGKERELVAAISRSAGRTYYADSVKGRFTISRDNAKNTVYLQMNSLKPEDTAVYYCAASGYKNGVYTYGYWGQGTQVTVSS	high polyreactivity
QVQLVESGGGLVQAGGSLRLSCAASGSIFITYAMGWYRQAPGKERELVAAIRDSGDRTYYADSVKGRFTISRDKAKNTDYLQKNSLKPEDTAVYYCNARWQEPLKYDYWGQGTQVTVSS	low polyreactivity
QVQLVESGGGLVQAGGSLRLSCAASGSIFITYAMGWYRQAPGKERELVAAIRDSGDRTYYADSVKGRFTISRDNAKNTVYLQMNRLKPEETAVYYCNARWQEPLKYDYWGQGTQVTVSS	low polyreactivity
QVQLVESGGGLVQAGGSLRLSCAASGSIFIVYAMGWYRQAPGKERELVATITSGGSTNYADSVKGRFTISRDNAKNTVYLQMNSLKPEDTAVYYCATQFPPSTIYDYWGQGTQVTVSS	low polyreactivity
QVQLVESGGGLVQAGGSLRLSCAASGSIFIYNAMGWYRQAPGKERELVAAISSSGGSTYYADSVKGRFTISRDNAKNTVYLQMNSLKPEDTAVYYCAARTYYVRGLGGRTGMDYWGQGTQVTVSS	low polyreactivity
QVQLVESGGGLVQAGGSLRLSCAASGSIFIYNAMGWYRQAPGKERELVAAISSSGGSTYYADSVKGRFTISRDYAKNTVYLQLNSLKPEDTAVYYCAARTYYVRGLGGRPGMDYWGQGTHVTVSS	low polyreactivity
